Test results taken from the supplement of paper PMC10266784.

B1: library; numbered along this chain (parent)
chain: MAAAAAAAAEQQSSNGPVKKSMREKAVERRSVNKEHNSNFKAGYIPIDEDRLHKTGLRGRKGNLAICVIILLFILAVINLIITLVIWAVIRIGPNGCDSMEFHESGLLRFKQVSDMGVIHPLYKSTVGGRRNENLVITGNNQPIVFQQGTTKLSVENNKTSITSDIGMQFFDPRTQNILFSTDYETHEFHLPSGVKSLNVQKASTERITSNATSDLNIKVDGRAIVRGNEGVFIMGKTIEFHMGGNMELKAENSIILNGSVMVSTTRLPSSSSGDQLGSGDWVRYKLCMCADGTLFKVQVTSQNMGCQISDNPCGNTH

Variants of: B1
Assay: SGCB cell-surface expression functional score (HA stain, bin4 vs bin1, normalised to synonymous) (log10 ratio); higher = more cell-surface SGCB (functional)
In short: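 Using lentivirus at MOI <0.1, HA-tagged, YFP-fused human beta-sarcoglycan codon-saturation libraries were put into HEK293 cells with stable alpha-, gamma- and delta-sarcoglycan expression, in duplicate transductions. YFP-positive cells were collected by sorting 72 hours later, grown 5–7 days, stained on ice with Alexa Fluor 647 anti-HA, fixed, sorted into four 5% intensity bins and amplicon-sequenced. The functional score takes the median, across codons and transductions, of the log ratio of highest-bin to lowest-bin variant frequency. Within each section, synonymous variants were scaled to mean 0, SD 0.5.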

**Q.** For MAAAAAAAAEQQSSNGPVKKSMREKAVERRSVNKEHNSNFKAGYIPIDEDRLHKTGLRGRKGNLAICVIILLFILAVINLIITLVIWAVIRIGPNGCDSMEFHESGLLRFKQVSDMGVIHPLYKSTVGGRRNENLVITGNNQPIVFQQGTTKLSVENNKTSITSDIGMQFFDPRTQNILFSTDYETHEFHLPSGVKSLNVQKASTERITSNATSDLNIKVDGRAIVRGNEGVFIMGKTIEFHMGGNMELKAENSIILNGSVMVSTTRLPSSSSGDQLGKGDWVRYKLCMCADGTLFKVQVTSQNMGCQISDNPCGNTH [S279K], which “SGCB cell-surface expression functional score (log10)” value is on record?
**A.** -0.05

**Q.** Which “SGCB cell-surface expression functional score (log10)” value does the source give for MAAAAAAAAEQQSSNGPVKKSMREKAVERRSVNKEHNSNFKAGYIPIDEDRLHKTGLRGRKGNLAICVIILLFILAVINLIITLVIWAVIRIGPNGCDSMEFHESGLLRFKQVSDMGVIHPLYKSTVGGRRNENLVITGNNQPIVFQQGTTKLSVENNKTSITSDIGMQFFDPRTQNILFSTDYETHEFHLPSGVKSLNVQKASTERITSNATSDLNIKVDGRAIVRGNEGVFIMGKTIEFHMGGNMELKAENSIILNGSVMVSTTRLPSSSSGDQLGDGDWVRYKLCMCADGTLFKVQVTSQNMGCQISDNPCGNTH [S279D] here?
**A.** 0.24

**Q.** Which “SGCB cell-surface expression functional score (log10)” value does the source give for MAAAAAAAAEQQSSNGPVKKSMREKAVERRSVNKEHNSNFKAGYIPIDEDRLHKTGLRGRKGNLAICVIILLFILAVINLIITLVIWAVIRIGPNGCDSMEFHESGLLRFKQVSDMGVIHPLYKSTVGGRRNENLVITGNNQPIVFQQGTTKLSVENNKTSITSDIGMQFFDPRTQNILFSTDYETHEFHLPSGVKSLNVQKASTERITSNATSDLNIKVDGRAIVRGNEGVFIMGKTIEFHMGGNMELKAENSIILNGSVMVSTTRLPSSSSGDQLGLGDWVRYKLCMCADGTLFKVQVTSQNMGCQISDNPCGNTH [S279L] here?
**A.** 0.22

**Q.** Which “SGCB cell-surface expression functional score (log10)” value does the source give for MAAAAAAAAEQQSSNGPVKKSMREKAVERRSVNKEHNSNFKAGYIPIDEDRLHKTGLRGRKGNLAICVIILLFILAVINLIITLVIWAVIRIGPNGCDSMEFHESGLLRFKQVSDMGVIHPLYKSTVGGRRNENLVITGNNQPIVFQQGTTKLSVENNKTSITSDIGMQFFDPRTQNILFSTDYETHEFHLPSGVKSLNVQKASTERITSNATSDLNIKVDGRAIVRGNEGVFIMGKTIEFHMGGNMELKAENSIILNGSVMVSTTRLPSSSSGDQLGAGDWVRYKLCMCADGTLFKVQVTSQNMGCQISDNPCGNTH [S279A] here?
**A.** 0.39

**Q.** With MAAAAAAAAEQQSSNGPVKKSMREKAVERRSVNKEHNSNFKAGYIPIDEDRLHKTGLRGRKGNLAICVIILLFILAVINLIITLVIWAVIRIGPNGCDSMEFHESGLLRFKQVSDMGVIHPLYKSTVGGRRNENLVITGNNQPIVFQQGTTKLSVENNKTSITSDIGMQFFDPRTQNILFSTDYETHEFHLPSGVKSLNVQKASTERITSNATSDLNIKVDGRAIVRGNEGVFIMGKTIEFHMGGNMELKAENSIILNGSVMVSTTRLPSSSSGDQLGGGDWVRYKLCMCADGTLFKVQVTSQNMGCQISDNPCGNTH [S279G] as the variant, how does the “SGCB cell-surface expression functional score (log10)” value read?
**A.** -0.07

**Q.** With MAAAAAAAAEQQSSNGPVKKSMREKAVERRSVNKEHNSNFKAGYIPIDEDRLHKTGLRGRKGNLAICVIILLFILAVINLIITLVIWAVIRIGPNGCDSMEFHESGLLRFKQVSDMGVIHPLYKSTVGGRRNENLVITGNNQPIVFQQGTTKLSVENNKTSITSDIGMQFFDPRTQNILFSTDYETHEFHLPSGVKSLNVQKASTERITSNATSDLNIKVDGRAIVRGNEGVFIMGKTIEFHMGGNMELKAENSIILNGSVMVSTTRLPSSSSGDQLGEGDWVRYKLCMCADGTLFKVQVTSQNMGCQISDNPCGNTH [S279E] as the variant, how does the “SGCB cell-surface expression functional score (log10)” value read?
**A.** 0.22

**Q.** For MAAAAAAAAEQQSSNGPVKKSMREKAVERRSVNKEHNSNFKAGYIPIDEDRLHKTGLRGRKGNLAICVIILLFILAVINLIITLVIWAVIRIGPNGCDSMEFHESGLLRFKQVSDMGVIHPLYKSTVGGRRNENLVITGNNQPIVFQQGTTKLSVENNKTSITSDIGMQFFDPRTQNILFSTDYETHEFHLPSGVKSLNVQKASTERITSNATSDLNIKVDGRAIVRGNEGVFIMGKTIEFHMGGNMELKAENSIILNGSVMVSTTRLPSSSSGDQLGIGDWVRYKLCMCADGTLFKVQVTSQNMGCQISDNPCGNTH [S279I], which “SGCB cell-surface expression functional score (log10)” value is on record?
**A.** -0.06

**Q.** For MAAAAAAAAEQQSSNGPVKKSMREKAVERRSVNKEHNSNFKAGYIPIDEDRLHKTGLRGRKGNLAICVIILLFILAVINLIITLVIWAVIRIGPNGCDSMEFHESGLLRFKQVSDMGVIHPLYKSTVGGRRNENLVITGNNQPIVFQQGTTKLSVENNKTSITSDIGMQFFDPRTQNILFSTDYETHEFHLPSGVKSLNVQKASTERITSNATSDLNIKVDGRAIVRGNEGVFIMGKTIEFHMGGNMELKAENSIILNGSVMVSTTRLPSSSSGDQLGCGDWVRYKLCMCADGTLFKVQVTSQNMGCQISDNPCGNTH [S279C], which “SGCB cell-surface expression functional score (log10)” value is on record?
**A.** 0.08

**Q.** Which “SGCB cell-surface expression functional score (log10)” value does the source give for MAAAAAAAAEQQSSNGPVKKSMREKAVERRSVNKEHNSNFKAGYIPIDEDRLHKTGLRGRKGNLAICVIILLFILAVINLIITLVIWAVIRIGPNGCDSMEFHESGLLRFKQVSDMGVIHPLYKSTVGGRRNENLVITGNNQPIVFQQGTTKLSVENNKTSITSDIGMQFFDPRTQNILFSTDYETHEFHLPSGVKSLNVQKASTERITSNATSDLNIKVDGRAIVRGNEGVFIMGKTIEFHMGGNMELKAENSIILNGSVMVSTTRLPSSSSGDQLGFGDWVRYKLCMCADGTLFKVQVTSQNMGCQISDNPCGNTH [S279F] here?
**A.** -0.13
